Measurements as given in patent US6855515B1, “Autoantigenic fragments, methods and assays” (Merck & Co., Inc., priority 1998, dated 2005).

B1: CENP B: autoantigen (protein)
chain: GPKRRQLTFREKSRIIQEVEENPDLRKGEIARRFNIPPSTLSTILKNKRAILASERKYGVASTCRKTNKLSPYDKLEGLLIAWFQQIRAAGLPVKGIILKEKALRIAEELGMDDFTASNGWLDRFRRRHGVVSCSGVARARARNAAPRTPAAPASPAAVPSEGSGGSTTGWRAREEQPPSVAEGYASQDVFSATETSLWYDFLPDQAAGLCGGDGRPRQATQRLSVLLCANADGSEKLPPLVAGKSAKPRAGQAGLPCDYTANSKGGVTTQALAKYLKALDTRMAAESRRVLLLAGRLAAQSLDTSGLRHVQLAFFPPGTVHPLERGVVQQVKGHYRQAMLLKAMAALEGQDPSGLQLGLTEALHFVAAAWQAVEPSDIAACFREAGFGGGPNATITTSLKSEGEEEEEEEEEEEEEEGEGEEEEEEGEEEEEEGGEGEELGEEEEVEEEGDVDSDEEEEEDEESSSEGLEAEDWAQGVVEAGGSFGAYGAQEEAQCPTLHFLEGGEDSDSDSEEEDDEEEDDEDEDDDDDEEDGDEVPVPSFGEAMAYFAMVKRYLTSFPIDDRVQSHILHLEHDLVHVTRKNHARQAGVRGLGHQS
B2: NOR-90: autoantigen (protein, UniProt P17480 1-764, looked up)
Nucleolar transcription …: MNGEADCPTDLEMAAPKGQDRWSQEDMLTLLECMKNNLPSNDSSKFKTTESHMDWEKVAFKDFSGDMCKLKWVEISNEVRKFRTLTELILDAQEHVKNPYKGKKLKKHPDFPKKPLTPYFRFFMEKRAKYAKLHPEMSNLDLTKILSKKYKELPEKKKMKYIQDFQREKQEFERNLARFREDHPDLIQNAKKSDIPEKPKTPQQLWYTHEKKVYLKVRPDATTKEVKDSLGKQWSQLSDKKRLKWIHKALEQRKEYEEIMRDYIQKHPELNISEEGITKSTLTKAERQLKDKFDGRPTKPPPNSYSLYCAELMANMKDVPSTERMVLCSQQWKLLSQKEKDAYHKKCDQKKKDYEVELLRFLESLPEEEQQRVLGEEKMLNINKKQATSPASKKPAQEGGKGGSEKPKRPVSAMFIFSEEKRRQLQEERPELSESELTRLLARMWNDLSEKKKAKYKAREAALKAQSERKPGGEREERGKLPESPKRAEEIWQQSVIGDYLARFKNDRVKALKAMEMTWNNMEKKEKLMWIKKAAEDQKRYERELSEMRAPPAATNSSKKMKFQGEPKKPPMNGYQKFSQELLSNGELNHLPLKERMVEIGSRWQRISQSQKEHYKKLAEEQQKQYKVHLDLWVKSLSPQDRAAYKEYISNKRKSMTKLRGPNPKSSRTTLQSKSESEEDDEEDEDDEDEDEEEEDDENGDSSEDGGDSSESSSEDESEDGDENEEDDEDEDDDEDDDEDEDNESEGSSSSSSSSGDSSDSDSN
B3: La: autoantigen (protein, UniProt P05455 1-408, looked up)
Lupus La protein: MAENGDNEKMAALEAKICHQIEYYFGDFNLPRDKFLKEQIKLDEGWVPLEIMIKFNRLNRLTTDFNVIVEALSKSKAELMEISEDKTKIRRSPSKPLPEVTDEYKNDVKNRSVYIKGFPTDATLDDIKEWLEDKGQVLNIQMRRTLHKAFKGSIFVVFDSIESAKKFVETPGQKYKETDLLILFKDDYFAKKNEERKQNKVEAKLRAKQEQEAKQKLEEDAEMKSLEEKIGCLLKFSGDLDDQTCREDLHILFSNHGEIKWIDFVRGAKEGIILFKEKAKEALGKAKDANNGNLQLRNKEVTWEVLEGEVEKEALKKIIEDQQESLNKWKSKGRRFKGKGKGNKAAQPGSGKGKVQFQGKKTKFASDDEHDEHDENGATGPVKRAREETDKEEPASKQQKTENGAGDQ
B4: Fibrilliarin: autoantigen (protein)
chain: MKPGFSPRGGGFGGRGGFGDRGGRGGRGGFGGGRGRGGGFRGRGRGGGGGGGGGGGGGRGGGGFHSGGNRGRGRGGKRGNQSGKNVMVEPHRHEGVFICRGKEDALVTKNLVPGESVYGEKRVSISEGDDKIEYRAWNPFRSKLAAAILGGVDQIHIKPGAKVLYLGAASGTTVSHVSDIVGPDGLVYAVEFSHRSGRDLINLAKKRTNIIPVIEDARHPHKYRMLIAMVDVIFADVAQPDQTRIVALNAHTFLRNGGHFVISIKANCIDSTASAEAVFASEVKKMQQENMKPQEQLTLEPYERDHAVVVGVYRPPPKVKN

molecular target: T1, granzyme B (Homo sapiens, UniProt P10144); experiment: Susceptibility of autoantigens to cleavage by purified granzyme B (HeLa lysate immunoblot or immunoprecipitates); type: biochemical; conditions: in vitro
T1 construct: Some of these preparations were used for the further purification of granzyme B (Tschopp, 1994); endogenous in cells; host or cells: YT cells (human NK cell line), cytoplasmic granules
Description: To determine whether susceptibility to direct cleavage by granzyme B was an isolated feature of PARP, NuMA and DNA-PKcs shown above, or whether it was a more general feature of autoantigens, a variety of well-defined autoantigens selected from across the spectrum of systemic autoimmune diseases were tested for susceptibility to cleavage by purified granzyume B. The efficiency of cleavage of the substrates by purified granzyme B was also noted (Table 3). Initially, a series of autoantibodies of well-defined specificity were used to immunoblot lysates of HeLa cells that had been incubated in vitro with or without granzyme B. Lysates were pre-treated with iodoacetamide (IAA) to prevent interference by endogenous caspase activity.
To perform these studies, HeLa cells were radiolabeled with [^35S] methionine/cysteine, and proteins were immunoprecipitated using human autoantibodies. Protein A-agarose beads containing washed precipitated proteins were resuspended in buffer supporting the activity of granzyme B, and incubated in the absence or presence of added purified granzyme B. Reaction products were visualized using SDS-PAGE and fluorography. To confirm the validity of this approach, several different autoantigens known to be cleaved by granzyme B, as well as several autoantigens and non-autoantigens that are not cleaved by granzyme B, were tested. Using autoantibodies that both immunoblot and immunprecipitate, the cleavage profiles obtained using granzyme B to cleave molecules in lysates (followed by detection with immunoblotting), and after immunoprecipitation (from [^35S]methionine-labeled HeLa lysate) were compared. Identical results were obtained using these 2 methods for cleaved autoantigens (topoisomerase-1, Mi-2, RNA polymerase II large subunit, Ku-70, PARP, and NOR-90), uncleaved autoantigens (Ku-80, Ro 60k), and control substrates (β-tubulin, vinculin). […] Of note, all these additional autoantigens (with the exception of RNA polymerase I) are targeted in autoimmune myositis. However, two other tRNA synthetases (threonyl tRNA synthetase and glycyl tRNA synthetase) that are also autoantigens in autoimmune myositis, were not cleaved using this approach.

T1 sequence (P10144 21-247): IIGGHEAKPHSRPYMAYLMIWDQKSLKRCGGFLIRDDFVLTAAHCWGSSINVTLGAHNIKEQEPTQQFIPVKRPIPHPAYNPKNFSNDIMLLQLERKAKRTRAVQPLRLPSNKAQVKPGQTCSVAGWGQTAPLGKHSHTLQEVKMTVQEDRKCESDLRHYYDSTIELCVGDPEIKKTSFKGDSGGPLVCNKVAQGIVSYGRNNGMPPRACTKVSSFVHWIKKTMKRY

Susceptibility to cleavage by granzyme B, efficiently cleaved:
B1, B2, B3, B4
